{"source": "the RNAGym collection of RNA variant scans (doi:10.7554/elife.80360)", "parents": {"B1": {"name": "Hairpin Ribozyme (parent)", "chain": "GUCCUCUUUCACGUGCGCGUGAAAGAGAGAAGUGAACCAGAGAAACACACGUUGUGGUAUAUUACCUGGUA"}}}
{"variants_of": "B1", "assay": "self-cleavage, relative activity (ratio to wild type); higher = more cleavage; co-transcriptional"}
{"variant": "A44C G69C", "self-cleavage": 0.141}
{"variant": "C46G U70C", "self-cleavage": 0.203}
{"variant": "G13C A24U", "self-cleavage": 0.735}
{"variant": "C10G U20C", "self-cleavage": 0.647}
{"variant": "C3G A30C", "self-cleavage": 0.0439}
{"variant": "C18A U60G", "self-cleavage": 0.732}
{"variant": "G21U U62A", "self-cleavage": 0.151}
{"variant": "A30G A59U", "self-cleavage": 0.305}
{"variant": "G15C A64C", "self-cleavage": 0.162}
{"variant": "A24U C46G", "self-cleavage": 0.113}
{"variant": "U58A C66U", "self-cleavage": 0.335}
{"variant": "A45C G54U", "self-cleavage": 0.152}
{"variant": "U8C A28U", "self-cleavage": 0.693}
{"variant": "U14C A22G", "self-cleavage": 0.864}
{"variant": "U55A C65U", "self-cleavage": 0.21}
{"variant": "A26G U62G", "self-cleavage": 0.0228}
{"variant": "G32C A71G", "self-cleavage": 0.238}
{"variant": "A24G A39U", "self-cleavage": 0.473}
{"variant": "C10A G42A", "self-cleavage": 0.149}
{"variant": "U5C G42C", "self-cleavage": 0.327}
{"variant": "G15C U63A", "self-cleavage": 0.188}
{"variant": "A61C G68A", "self-cleavage": 0.116}
{"variant": "G13U A23C", "self-cleavage": 0.557}
{"variant": "C4U U67A", "self-cleavage": 0.121}
{"variant": "U20C A22U", "self-cleavage": 0.602}
{"variant": "G32A U70C", "self-cleavage": 0.0825}
{"variant": "C4U U62C", "self-cleavage": 0.16}
{"variant": "A24C G29C", "self-cleavage": 0.208}
{"variant": "G25U A31U", "self-cleavage": 0.166}
{"variant": "A39G A44U", "self-cleavage": 0.103}
{"variant": "G29U C37G", "self-cleavage": 0.0458}
{"variant": "A45G U52G", "self-cleavage": 0.0854}
{"variant": "C3U G34C", "self-cleavage": 1.03}
{"variant": "A11G A43C", "self-cleavage": 0.0944}
{"variant": "G29U A39G", "self-cleavage": 0.0986}
{"variant": "C6A U14G", "self-cleavage": 0.499}
{"variant": "U14G A22U", "self-cleavage": 0.683}
{"variant": "U9G A30G", "self-cleavage": 0.0174}
{"variant": "U9C C12A", "self-cleavage": 0.789}
{"variant": "G32U C50A", "self-cleavage": 0.0903}
{"variant": "G42C U60C", "self-cleavage": 0.419}
{"variant": "U5C U70C", "self-cleavage": 0.277}
{"variant": "U7C G25U", "self-cleavage": 0.494}
{"variant": "G15C A61U", "self-cleavage": 0.181}
{"variant": "A24G C37U", "self-cleavage": 0.294}
{"variant": "A11U U63A", "self-cleavage": 0.22}
{"variant": "A22C A26C", "self-cleavage": 0.528}
{"variant": "C12G G56A", "self-cleavage": 0.14}
{"variant": "G29A C50G", "self-cleavage": 0.187}
{"variant": "A28C G57A", "self-cleavage": 0.119}
{"variant": "G15A A35G", "self-cleavage": 0.934}
{"variant": "C16A G25A", "self-cleavage": 0.561}
{"variant": "C12A C48G", "self-cleavage": 0.137}
{"variant": "U5G C66A", "self-cleavage": 0.0473}
{"variant": "G15U G51U", "self-cleavage": 1.22}
{"variant": "G13U A45U", "self-cleavage": 0.136}
{"variant": "G32A A64C", "self-cleavage": 0.14}
{"variant": "U8C U62C", "self-cleavage": 0.201}
{"variant": "G15C A64G", "self-cleavage": 0.532}
{"variant": "A64C C66U", "self-cleavage": 0.27}
{"variant": "A11C U60G", "self-cleavage": 0.714}
{"variant": "G54C U60A", "self-cleavage": 0.272}
{"variant": "G19C G25A", "self-cleavage": 0.512}
{"variant": "C38A A45U", "self-cleavage": 0.143}
{"variant": "U9G G34C", "self-cleavage": 0.833}
{"variant": "A23U U52C", "self-cleavage": 0.677}
{"variant": "U5G G68A", "self-cleavage": 0.201}
{"variant": "U5C U58A", "self-cleavage": 0.21}
{"variant": "G19C U67C", "self-cleavage": 0.176}
{"variant": "G27A C46G", "self-cleavage": 0.138}
{"variant": "C16G A43G", "self-cleavage": 0.0515}
{"variant": "U7A C46G", "self-cleavage": 0.108}
{"variant": "A26C G57C", "self-cleavage": 0.0672}
{"variant": "C6U U14A", "self-cleavage": 0.853}
{"variant": "C37U C66G", "self-cleavage": 0.195}
{"variant": "U9C G15A", "self-cleavage": 0.76}
{"variant": "C38G A45U", "self-cleavage": 0.156}
{"variant": "A11C A35U", "self-cleavage": 0.643}
{"variant": "C16A U67G", "self-cleavage": 0.182}
{"variant": "A59C G69C", "self-cleavage": 0.216}
{"variant": "U14C G21A", "self-cleavage": 0.865}
{"variant": "C16G A22C", "self-cleavage": 0.604}
{"variant": "C10U G34A", "self-cleavage": 1.04}
{"variant": "G13A G40U", "self-cleavage": 0.129}
{"variant": "U60G A61U", "self-cleavage": 0.259}
{"variant": "C46G A49C", "self-cleavage": 0.13}
{"variant": "U7C C50A", "self-cleavage": 0.209}
{"variant": "U7C A41G", "self-cleavage": 0.845}
{"variant": "C4A U20G", "self-cleavage": 0.259}
{"variant": "U7C A43G", "self-cleavage": 0.0623}
{"variant": "C3G C38G", "self-cleavage": 0.0857}
{"variant": "A30G G57A", "self-cleavage": 0.0803}
{"variant": "U20C C66G", "self-cleavage": 0.152}
{"variant": "C16U G32A", "self-cleavage": 0.216}
{"variant": "G56C U62G", "self-cleavage": 0.129}
{"variant": "A28U U53A", "self-cleavage": 0.845}
{"variant": "U14C G34C", "self-cleavage": 1.5}
{"variant": "U7G U70G", "self-cleavage": 0.917}
{"variant": "G25U U52A", "self-cleavage": 0.55}
{"variant": "C66G G69C", "self-cleavage": 0.145}
{"variant": "C16G A31C", "self-cleavage": 0.0855}
{"variant": "G51A U63C", "self-cleavage": 0.109}
{"variant": "G1A A28U", "self-cleavage": 0.0496}
{"variant": "G27U A43C", "self-cleavage": 0.0898}
{"variant": "A11G G56C", "self-cleavage": 0.128}
{"variant": "U8A U52A", "self-cleavage": 0.658}
{"variant": "G42U U58A", "self-cleavage": 0.0966}
{"variant": "G34C U70C", "self-cleavage": 1.42}
{"variant": "U5G A61U", "self-cleavage": 0.108}
{"variant": "U14C A28U", "self-cleavage": 0.668}
{"variant": "A31U C37G", "self-cleavage": 0.237}
{"variant": "A11G A59G", "self-cleavage": 0.199}
{"variant": "C4G G21A", "self-cleavage": 0.0893}
{"variant": "A24C U70A", "self-cleavage": 0.985}
{"variant": "G13U G27A", "self-cleavage": 0.347}
{"variant": "G29U G54A", "self-cleavage": 0.104}
{"variant": "A30C U53C", "self-cleavage": 0.203}
{"variant": "C12U C66U", "self-cleavage": 0.514}
{"variant": "C6U U58C", "self-cleavage": 0.893}
{"variant": "A23G A39G", "self-cleavage": 0.353}
{"variant": "C6U G27C", "self-cleavage": 0.106}
{"variant": "U5A U63C", "self-cleavage": 0.196}
{"variant": "C10A A11G", "self-cleavage": 0.644}
{"variant": "G40A G68C", "self-cleavage": 0.223}
{"variant": "C10G G42U", "self-cleavage": 0.214}
{"variant": "C3U C38A", "self-cleavage": 0.106}
{"variant": "G32A U53A", "self-cleavage": 0.0993}
{"variant": "C16U A23G", "self-cleavage": 1}
{"variant": "A36C A71U", "self-cleavage": 0.654}
{"variant": "A31G U67C", "self-cleavage": 0.118}
{"variant": "G57U A61G", "self-cleavage": 0.296}
{"variant": "G21U A59U", "self-cleavage": 0.147}
{"variant": "A41C A71G", "self-cleavage": 1.26}
{"variant": "A39C A41C", "self-cleavage": 0.349}
{"variant": "G13U U63G", "self-cleavage": 0.257}
{"variant": "C38U A47C", "self-cleavage": 0.276}
{"variant": "C4A C6G", "self-cleavage": 0.161}
{"variant": "G51U U67C", "self-cleavage": 0.299}
{"variant": "A31U A36C", "self-cleavage": 0.197}
{"variant": "A41U U60A", "self-cleavage": 1.37}
{"variant": "A31G A35G", "self-cleavage": 0.662}
{"variant": "U20G A64G", "self-cleavage": 0.511}
{"variant": "C46A U60C", "self-cleavage": 0.277}
{"variant": "C46G A61G", "self-cleavage": 0.126}
{"variant": "U33G A71U", "self-cleavage": 0.067}
{"variant": "C3U G68A", "self-cleavage": 0.183}
{"variant": "C16A A45C", "self-cleavage": 0.123}
{"variant": "C16A A31C", "self-cleavage": 0.0433}
{"variant": "U5G A23G", "self-cleavage": 0.372}
{"variant": "U2A G54C", "self-cleavage": 0.145}
{"variant": "G15A C37G", "self-cleavage": 0.312}
{"variant": "G1C A43U", "self-cleavage": 0.171}
{"variant": "G1C C3G", "self-cleavage": 0.246}
{"variant": "C18G A31U", "self-cleavage": 0.165}
{"variant": "C37G G68A", "self-cleavage": 0.14}
{"variant": "G19U G54C", "self-cleavage": 0.437}
{"variant": "C37G C66U", "self-cleavage": 0.286}
{"variant": "A61G G68C", "self-cleavage": 0.195}
{"variant": "G19C G69U", "self-cleavage": 0.212}
{"variant": "A49C U70G", "self-cleavage": 0.0833}
{"variant": "G32A G69C", "self-cleavage": 0.163}
{"variant": "A59C C66U", "self-cleavage": 0.107}
{"variant": "G15A A47C", "self-cleavage": 0.302}
{"variant": "U14C G51A", "self-cleavage": 0.854}
{"variant": "U5G A49U", "self-cleavage": 0.127}
{"variant": "U9C C46U", "self-cleavage": 0.0512}
{"variant": "C18G G57A", "self-cleavage": 0.118}
